Data taken from US20190071490A1 (BETH ISRAEL DEACONESS MEDICAL CENTER, published 2019).
Numbering of substitutions follows the chain as printed. Names may count otherwise. Ends that are not written are not given here.

T1: human α-CGRP 1-37 (WT) (human, C-terminal amide; N-terminal biotin when captured on the SA chip; 125I-labelled in the radioligand assay)
T1 construct: also called α-human
T1 peptide: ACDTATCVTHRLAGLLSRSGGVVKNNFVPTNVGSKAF

B1: human α-CGRP 19-36 (peptide)
peptide: SGGVVKNNFVPTNVGSKA-OH
notes: also called 19-36-COOH; peptide fragment 19-36
B2: Human adrenomedullin (1-52) (peptide)
peptide: YRQSMNNFQGLRSFGCRFGTCTVQKLAHQIYQFTDKDKDNVAPRSKISPQGY-NH2
modifications: ends and bridges not checked
B3: rat α-CGRP (1-37) (peptide)
peptide: SCNTATCVTHRLAGLLSRSGGVVKDNFVPTNVGSEAF-NH2
modifications: ends and bridges not checked; also: N-terminal biotin when captured on the SA chip
notes: also called rat α (1-37); α-rat
B4: human α-CGRP 1-36-COOH (peptide)
peptide: ACDTATCVTHRLAGLLSRSGGVVKNNFVPTNVGSKA-OH
modifications: ends and bridges not checked
notes: also called 1-36 (not amidated at the C-terminus)
B5: human α-CGRP 19-37-COOH (peptide)
peptide: SGGVVKNNFVPTNVGSKAF-OH
notes: also called 19-37 (not amidated at the C-terminus)
B6: G1 variant M76 Fab (Fab, V domains shown)
VH: EVQLVESGGGLVQPGGSLRLSCAASGFTFSNYWISWVRQAPGKGLEWVAEIRSESDGSATHYAEAVKGRFTISRDNAKNSLYLQMNSLRAEDTAVYYCTVYFDYGLAIQNYWGQGTLVTVSS
VL: EIVLTQSPATLSLSPGERATLSCKASKNVSTYVSWYQQKPGQAPRLLIYAASNRYTGIPARFSGSGSGTDFTLTISSLEPEDFAVYYCSQSYNYPYTFGQGTKLEIK
notes: Fab; constant domains as m1
B7: G1 variant M82 Fab (Fab, V domains shown)
VH: B6 VH with G57N
VL: B6 VL with S30V, A50G, A51H
notes: Fab; constant domains as m1
B8: G1 variant M81 Fab (Fab, V domains shown)
VH: B6 VH with E54K, G57N, S58E
VL: B6 VL with A50G, T56S
notes: Fab; constant domains as m1
B9: G1 variant M77 Fab (Fab, V domains shown)
VH: B6 VH with E54K, G57D
VL: B6 VL
notes: Fab; constant domains as m1
B10: G1 variant M84 Fab (Fab, V domains shown)
VH: B6 VH with E54N, G57N
VL: B6 VL with S30V, A50G, A51H
notes: Fab; constant domains as m1
B11: G1 variant M78 Fab (Fab, V domains shown)
VH: B6 VH with E54K, G57N, S58T
VL: B6 VL
notes: Fab; constant domains as m1
B12: G1 variant M80 Fab (Fab, V domains shown)
VH: B6 VH with E54K, G57N, S58V
VL: B6 VL with A50G, T56I
notes: Fab; constant domains as m1; printed L561 read as L56I
B13: G1 variant M79 Fab (Fab, V domains shown)
VH: B6 VH with E54K, G57P
VL: B6 VL
notes: Fab; constant domains as m1
B14: G1 variant M83 Fab (Fab, V domains shown)
VH: B6 VH with E54K, G57N, S58M, H61F
VL: B6 VL with S30V, A50G, A51H
notes: Fab; constant domains as m1

What follows are binders tested against antibody G1 Fab fragment (assay: Biacore competition: G1 Fab (50 nM) pre-incubated with competing peptide, flowed over human α-CGRP on SA chip).
Excerpt: (§1) Y axis represents percentage of binding blocked by the presence of the competing peptide compared with the binding in the absence of the competing peptide.
(§2) All these peptides are amidated at the C-terminus.

Row | binding result | Binder
1 | no binding (tested: 10 µM) | B1
2 | no binding (tested: 10 µM) | KCNTATCATQRLANFLVHSSNNFGAILSSTNVGSNTY-NH2 (ends and bridges not checked) [Human amylin (1-37)]
3 | no binding (tested: 10 µM) | ACDTATCVTHRLA-OH (ends and bridges not checked) [human α-CGRP 1-13-COOH]
4 | no binding (tested: 10 µM) | B2
5 | no binding (tested: 10 µM) | ACDTATCVTHRLAGLLSRS-OH (ends and bridges not checked) [human α-CGRP 1-19-COOH]
6 | no binding (tested: 10 µM) | CGNLSTCMLGTYTQDFNKFHTFPQTAIGVGAP-NH2 (ends and bridges not checked) [Human calcitonin (1-32)]

The binders below were run against antibody G1 Fab fragment (assay: Biacore competition: G1 Fab (50 nM) pre-incubated 1 h with 10 µM competing peptide, then flowed over N-biotinylated human α-CGRP on SA chip; percent of binding to chip-bound human α-CGRP blocked).
Excerpt: as §1, §2
Target sequence in this assay (VH, as listed by the source, chain 1 of 2): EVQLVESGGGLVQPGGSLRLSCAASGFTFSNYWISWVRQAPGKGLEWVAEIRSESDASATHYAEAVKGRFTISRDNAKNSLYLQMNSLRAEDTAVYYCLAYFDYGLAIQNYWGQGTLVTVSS
Target sequence in this assay (VL, as listed by the source, chain 2 of 2): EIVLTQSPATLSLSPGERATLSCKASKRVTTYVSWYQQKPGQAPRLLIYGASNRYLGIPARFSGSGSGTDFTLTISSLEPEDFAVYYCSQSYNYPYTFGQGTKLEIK

Row | % Binding Blocked | Binder
7 | 0.6% | B1
8 | 100% | B3
9 | 40.6% | B4
10 | 83.3% | B5
11 | 100% | SGGVVKNNFVATNVGSKAF-NH2 (the entry already carries P29A) [human α-CGRP P29A (19-37)]
12 | 100% | SGGVVKNNFVPTNVGSAAF-NH2 (also: N-terminal biotin when on the chip, the entry already carries K35A) [human α-CGRP K35A (19-37)]
13 | 100% | SGGVVKNNFVPTNVGSEAF-NH2 (also: N-terminal biotin when on the chip, the entry already carries K35E) [human α-CGRP K35E (19-37)]
14 | 91.7% | SGGVVKNNFVPTNVGSKAA-NH2 (the entry already carries F37A) [human α-CGRP F37A (19-37)]
15 | 100% | SGGVVKNNFVPTNVGSMAF-NH2 (also: N-terminal biotin when on the chip, the entry already carries K35M) [human α-CGRP K35M (19-37)]

Molecular target: T1, human α-CGRP 1-37 (WT)
Assay: Biacore, 37°C, Fab over CGRP on SA chip
Outline: (§3)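 Fab analyte flowed over N-biotinylated CGRP captured at low density on a streptavidin chip in HBS-EP (pH 7.4), 1-min injections at 100 μL/min, at least 10 min dissociation.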

Row | Kd | koff | Binder
16 | 2.28 nM | 0.000364 s⁻¹ | B6
17 | 5.48 nM | 0.000877 s⁻¹ | B7
18 | 3.06 nM | 0.00049 s⁻¹ | B8
19 | 2.98 nM | 0.000477 s⁻¹ | B9
20 | 6.75 nM | 0.00108 s⁻¹ | B10
21 | 8.19 nM | 0.00131 s⁻¹ | B11
22 | 13.1 nM | 0.00209 s⁻¹ | B12
23 | 8.06 nM | 0.00129 s⁻¹ | B13
24 | 5.83 nM | 0.000933 s⁻¹ | B14

Molecular target: B3
Assay: Biacore, 37°C, Fab over CGRP on SA chip
Outline: as §3

Row | Kd | koff | binding result | Binder
25 | 64.4 nM | 0.00116 s⁻¹ | – | B6
26 | 388 nM | 0.00699 s⁻¹ | – | B7
27 | 238 nM | 0.00429 s⁻¹ | – | B8
28 | 794 nM | 0.0143 s⁻¹ | – | B9
29 | 978 nM | 0.0176 s⁻¹ | – | B10
30 | 9280 nM | 0.167 s⁻¹ | – | B11
31 | 5520 nM | 0.0993 s⁻¹ | – | B12
32 | 10600 nM | 0.19 s⁻¹ | – | B13
33 | – | – | no binding | B14

What follows are binders tested against antibody G1 Fab fragment (assay: Biacore competition: 50 nM G1 Fab with 10 µM peptide over human α-CGRP on chip).
Excerpt: as §1, §2
Target sequence in this assay (VH, as listed by the source, chain 1 of 2): as the sequence (VH, as listed by the source, chain 1 of 2) above
Target sequence in this assay (VL, as listed by the source, chain 2 of 2): as the sequence (VL, as listed by the source, chain 2 of 2) above

Row | percentage of binding blocked | Binder
34 | 100% | B3
35 | ~40% | B4
36 | 100% | SGGVVKNNFVATNVGSKAF-NH2 (the entry already carries P29A) [human α-CGRP P29A (19-37)]
37 | 100% | SGGVVKNNFVPTNVGSAAF-NH2 (also: N-terminal biotin when on the chip, the entry already carries K35A) [human α-CGRP K35A (19-37)]
38 | 100% | SGGVVKNNFVPTNVGSEAF-NH2 (also: N-terminal biotin when on the chip, the entry already carries K35E) [human α-CGRP K35E (19-37)]
39 | 100% | SGGVVKNNFVPTNVGSMAF-NH2 (also: N-terminal biotin when on the chip, the entry already carries K35M) [human α-CGRP K35M (19-37)]
